Patent US20060234925A1

What was measured:
[1] = biological target: caprine CXCR3 (caprine (goat)) (UniProt Q867B2); assay: cell-based or functional assay
[2] = biological target: ovine CXCR3 on peripheral blood mononuclear cells (ovine); assay: cell-based or functional assay

UniProt Q867B2, sequence (Q867B2 whole entry): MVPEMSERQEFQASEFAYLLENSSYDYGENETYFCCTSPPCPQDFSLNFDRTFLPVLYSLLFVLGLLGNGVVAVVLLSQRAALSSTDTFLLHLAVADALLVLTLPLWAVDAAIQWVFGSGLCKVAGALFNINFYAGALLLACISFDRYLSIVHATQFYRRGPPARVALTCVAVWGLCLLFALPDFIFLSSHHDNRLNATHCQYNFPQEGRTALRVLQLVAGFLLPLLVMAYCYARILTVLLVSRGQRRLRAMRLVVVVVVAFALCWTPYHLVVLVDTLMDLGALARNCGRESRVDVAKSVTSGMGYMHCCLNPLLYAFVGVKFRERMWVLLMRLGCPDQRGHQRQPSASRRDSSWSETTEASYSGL

Substance: recombinant caprine IP-10 (N-terminal histidine tag, mature region, expressed from pET-14b-cIP-10 in E. coli BL21-SI) (ligand)
- chemotaxis of HTS-1 cells transfected with caprine CXCR3 [1]: 1 to 20 ng/mL
- chemotaxis of KU-1 cells transfected with caprine CXCR3 (modified Boyden chamber) [1]: 1 to 20 ng/mL
- chemotaxis of ovine PBMCs [2]: 0.2 to 5 ng/mL
